Patent US20170165366A1

Target: mouse TIGIT-His (SEQ ID NO: 3) (mouse) (UniProt P86176)
Experiment: BLI (Octet QKe), SEC1 on AMC sensor, mouse TIGIT-His 33 to 1.22 nM, 1:1 global fit

Sequence of mouse TIGIT-His (SEQ ID NO: 3) (mouse) (P86176 other isoform, or with tags, fused parts or gaps limits assumed, form in doubt): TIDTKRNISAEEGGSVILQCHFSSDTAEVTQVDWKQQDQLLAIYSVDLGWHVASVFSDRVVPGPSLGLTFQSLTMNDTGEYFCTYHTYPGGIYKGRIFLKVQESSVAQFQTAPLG

B1: SEC1 mouse IgG2a N297A (antibody, V domains shown)
VH: EVQLVESGGGLTQPGKSLKLSCEASGFTFSSFTMHWVRQSPGKGLEWVAFIRSGSGIVFYADAVRGRFTISRDNAKNLLFLQMNDLKSEDTAMYYCARRPLGHNTFDSWGQGTLVTVSS
VL: DIVMTQSPSSLAVSPGEKVTMTCKSSQSLYYSGVKENLLAWYQQKPGQSPKLLIYYASIRFTGVPDRFTGSGSGTDYTLTITSVQAEDMGQYFCQQGINNPLTFGDGTKLEIKR
Kd: 0.32 nM | koff: 0.0006 s⁻¹ | kon: 1.9e+06 M⁻¹ s⁻¹
